From patent US20110171126A1

How the values were obtained:
[1] = molecular target: HLA-DR as expressed by cancer cell lines (human); experiment: cell-based or functional assay
[2] = molecular target: HLA-DR as expressed by cancer cell lines (human); experiment: flow cytometry, surface, RL cells
[3] = molecular target: HLA-DR as expressed by cancer cell lines (human); experiment: flow cytometry, surface, CAG cells
[4] = molecular target: HLA-DR as expressed by cancer cell lines (human); experiment: flow cytometry, surface, U87 cells
[5] = molecular target: HLA-DR as expressed by cancer cell lines (human); experiment: flow cytometry, surface, HT29 cells
[6] = molecular target: HLA-DR as expressed by cancer cell lines (human); experiment: flow cytometry, surface, Lovo cells
[7] = molecular target: HLA-DR as expressed by cancer cell lines (human); experiment: flow cytometry, surface, U118 cells
[8] = molecular target: HLA-DR as expressed by cancer cell lines (human); experiment: flow cytometry, surface, FSCCL cells
[9] = molecular target: HLA-DR as expressed by cancer cell lines (human); experiment: flow cytometry, surface, KMS11 cells
[10] = molecular target: HLA-DR as expressed by cancer cell lines (human); experiment: flow cytometry, surface, Moser cells
[11] = molecular target: HLA-DR as expressed by cancer cell lines (human); experiment: flow cytometry, surface, TU118 cells
[12] = molecular target: HLA-DR as expressed by cancer cell lines (human); experiment: flow cytometry, surface, Aspc-1 cells
[13] = molecular target: HLA-DR as expressed by cancer cell lines (human); experiment: flow cytometry, surface, BxPC-3 cells
[14] = molecular target: HLA-DR as expressed by cancer cell lines (human); experiment: flow cytometry, surface, LS174T cells
[15] = molecular target: HLA-DR as expressed by cancer cell lines (human); experiment: flow cytometry, surface, Panc-1 cells
[16] = molecular target: HLA-DR as expressed by cancer cell lines (human); experiment: flow cytometry, surface, Capan-1 cells
[17] = molecular target: HLA-DR as expressed by cancer cell lines (human); experiment: flow cytometry, surface, RL cells + IFNγ
[18] = molecular target: HLA-DR as expressed by cancer cell lines (human); experiment: flow cytometry, surface, CAG cells + IFNγ
[19] = molecular target: HLA-DR as expressed by cancer cell lines (human); experiment: flow cytometry, surface, U87 cells + IFNγ
[20] = molecular target: HLA-DR as expressed by cancer cell lines (human); experiment: flow cytometry, surface, HT29 cells + IFNγ
[21] = molecular target: HLA-DR as expressed by cancer cell lines (human); experiment: flow cytometry, surface, Lovo cells + IFNγ
[22] = molecular target: HLA-DR as expressed by cancer cell lines (human); experiment: flow cytometry, surface, U118 cells + IFNγ
[23] = molecular target: HLA-DR as expressed by cancer cell lines (human); experiment: flow cytometry, surface, Capan cells + IFNγ
[24] = molecular target: HLA-DR as expressed by cancer cell lines (human); experiment: flow cytometry, surface, FSCCL cells + IFNγ
[25] = molecular target: HLA-DR as expressed by cancer cell lines (human); experiment: flow cytometry, surface, KMS11 cells + IFNγ
[26] = molecular target: HLA-DR as expressed by cancer cell lines (human); experiment: flow cytometry, surface, Moser cells + IFNγ
[27] = molecular target: HLA-DR as expressed by cancer cell lines (human); experiment: flow cytometry, surface, TU118 cells + IFNγ
[28] = molecular target: HLA-DR as expressed by cancer cell lines (human); experiment: flow cytometry, surface, Aspc-1 cells + IFNγ
[29] = molecular target: HLA-DR as expressed by cancer cell lines (human); experiment: flow cytometry, surface, BxPC-3 cells + IFNγ
[30] = molecular target: HLA-DR as expressed by cancer cell lines (human); experiment: flow cytometry, surface, LS174T cells + IFNγ
[31] = molecular target: HLA-DR as expressed by cancer cell lines (human); experiment: flow cytometry, surface, Panc-1 cells + IFNγ
[32] = molecular target: HLA-DR as expressed by cancer cell lines (human); experiment: flow cytometry, permeabilized (cytoplasmic), RL cells
[33] = molecular target: HLA-DR as expressed by cancer cell lines (human); experiment: flow cytometry, permeabilized (cytoplasmic), CAG cells
[34] = molecular target: HLA-DR as expressed by cancer cell lines (human); experiment: flow cytometry, permeabilized (cytoplasmic), U87 cells
[35] = molecular target: HLA-DR as expressed by cancer cell lines (human); experiment: flow cytometry, permeabilized (cytoplasmic), HT29 cells
[36] = molecular target: HLA-DR as expressed by cancer cell lines (human); experiment: flow cytometry, permeabilized (cytoplasmic), Lovo cells
[37] = molecular target: HLA-DR as expressed by cancer cell lines (human); experiment: flow cytometry, permeabilized (cytoplasmic), U118 cells
[38] = molecular target: HLA-DR as expressed by cancer cell lines (human); experiment: flow cytometry, permeabilized (cytoplasmic), FSCCL cells
[39] = molecular target: HLA-DR as expressed by cancer cell lines (human); experiment: flow cytometry, permeabilized (cytoplasmic), KMS11 cells
[40] = molecular target: HLA-DR as expressed by cancer cell lines (human); experiment: flow cytometry, permeabilized (cytoplasmic), Moser cells
[41] = molecular target: HLA-DR as expressed by cancer cell lines (human); experiment: flow cytometry, permeabilized (cytoplasmic), TU118 cells
[42] = molecular target: HLA-DR as expressed by cancer cell lines (human); experiment: flow cytometry, permeabilized (cytoplasmic), Aspc-1 cells
[43] = molecular target: HLA-DR as expressed by cancer cell lines (human); experiment: flow cytometry, permeabilized (cytoplasmic), BxPC-3 cells
[44] = molecular target: HLA-DR as expressed by cancer cell lines (human); experiment: flow cytometry, permeabilized (cytoplasmic), LS174T cells
[45] = molecular target: HLA-DR as expressed by cancer cell lines (human); experiment: flow cytometry, permeabilized (cytoplasmic), Panc-1 cells
[46] = molecular target: HLA-DR as expressed by cancer cell lines (human); experiment: flow cytometry, permeabilized (cytoplasmic), Capan-1 cells
[47] = molecular target: HLA-DR as expressed by cancer cell lines (human); experiment: flow cytometry, permeabilized (cytoplasmic), RL cells + IFNγ
[48] = molecular target: HLA-DR as expressed by cancer cell lines (human); experiment: flow cytometry, permeabilized (cytoplasmic), CAG cells + IFNγ
[49] = molecular target: HLA-DR as expressed by cancer cell lines (human); experiment: flow cytometry, permeabilized (cytoplasmic), U87 cells + IFNγ
[50] = molecular target: HLA-DR as expressed by cancer cell lines (human); experiment: flow cytometry, permeabilized (cytoplasmic), HT29 cells + IFNγ
[51] = molecular target: HLA-DR as expressed by cancer cell lines (human); experiment: flow cytometry, permeabilized (cytoplasmic), Lovo cells + IFNγ
[52] = molecular target: HLA-DR as expressed by cancer cell lines (human); experiment: flow cytometry, permeabilized (cytoplasmic), U118 cells + IFNγ
[53] = molecular target: HLA-DR as expressed by cancer cell lines (human); experiment: flow cytometry, permeabilized (cytoplasmic), Capan cells + IFNγ
[54] = molecular target: HLA-DR as expressed by cancer cell lines (human); experiment: flow cytometry, permeabilized (cytoplasmic), FSCCL cells + IFNγ
[55] = molecular target: HLA-DR as expressed by cancer cell lines (human); experiment: flow cytometry, permeabilized (cytoplasmic), KMS11 cells + IFNγ
[56] = molecular target: HLA-DR as expressed by cancer cell lines (human); experiment: flow cytometry, permeabilized (cytoplasmic), Moser cells + IFNγ
[57] = molecular target: HLA-DR as expressed by cancer cell lines (human); experiment: flow cytometry, permeabilized (cytoplasmic), TU118 cells + IFNγ
[58] = molecular target: HLA-DR as expressed by cancer cell lines (human); experiment: flow cytometry, permeabilized (cytoplasmic), Aspc-1 cells + IFNγ
[59] = molecular target: HLA-DR as expressed by cancer cell lines (human); experiment: flow cytometry, permeabilized (cytoplasmic), BxPC-3 cells + IFNγ
[60] = molecular target: HLA-DR as expressed by cancer cell lines (human); experiment: flow cytometry, permeabilized (cytoplasmic), LS174T cells + IFNγ
[61] = molecular target: HLA-DR as expressed by cancer cell lines (human); experiment: flow cytometry, permeabilized (cytoplasmic), Panc-1 cells + IFNγ

B1: hL243γ4P (humanized anti-HLA-DR antibody) (antibody, from a related filing, V domains shown)
VH: QVQLQQSGSELKKPGASVKVSCKASGFTFTNYGMNWVKQAPGQGLKWMGWINTYTREPTYADDFKGRFAFSLDTSVSTAYLQISSLKADDTAVYFCARDITAVVPTGFDYWGQGSLVTVSS
VL: DIQLTQSPSSLSASVGDRVTITCRASENIYSNLAWYRQKPGKAPKLLVFAASNLADGVPSRFSGSGSGTDYTFTISSLQPEDIATYYCQHFWTTPWAFGGGTKLQIKR
With B1 the increased killing in vitro after IFN-γ exposure, WSU-FSCCL NHL cells [1] was 58%, the fluorescence intensity (flow cytometry) [2] was 750 and the fluorescence intensity (flow cytometry) [3] was 1930. For the same binder, the fluorescence intensity (flow cytometry) [4] was 41.9, the fluorescence intensity (flow cytometry) [5] was 3.3 and the fluorescence intensity (flow cytometry) [6] was 7.3. The fluorescence intensity (flow cytometry) [7] was 6.1, the fluorescence intensity (flow cytometry) [8] was 1090 and the fluorescence intensity (flow cytometry) [9] was 677. The fluorescence intensity (flow cytometry) [10] was 4, the fluorescence intensity (flow cytometry) [11] was 5.08 and the fluorescence intensity (flow cytometry) [12] was 3.2. For the same binder, the fluorescence intensity (flow cytometry) [13] was 2.3, the fluorescence intensity (flow cytometry) [14] was 5.3 and the fluorescence intensity (flow cytometry) [15] was 4.3. For the same binder, the fluorescence intensity (flow cytometry) [16] was 5.5, the fluorescence intensity (flow cytometry) [17] was 862 and the fluorescence intensity (flow cytometry) [18] was 1810. For the same binder, the fluorescence intensity (flow cytometry) [19] was 172, the fluorescence intensity (flow cytometry) [20] was 298 and the fluorescence intensity (flow cytometry) [21] was 276. The fluorescence intensity (flow cytometry) [22] was 197, the fluorescence intensity (flow cytometry) [23] was 66.2 and the fluorescence intensity (flow cytometry) [24] was 1610. The fluorescence intensity (flow cytometry) [25] was 665, the fluorescence intensity (flow cytometry) [26] was 8.5 and the fluorescence intensity (flow cytometry) [27] was 93.5. It also gave a fluorescence intensity (flow cytometry) [28] of 15.2, a fluorescence intensity (flow cytometry) [29] of 43.8 and a fluorescence intensity (flow cytometry) [30] of 4.7. The fluorescence intensity (flow cytometry) [31] was 4.7, the fluorescence intensity (flow cytometry) [32] was 1060 and the fluorescence intensity (flow cytometry) [33] was 2320. For the same binder, the fluorescence intensity (flow cytometry) [34] was 102, the fluorescence intensity (flow cytometry) [35] was 9.1 and the fluorescence intensity (flow cytometry) [36] was 32.5. For the same binder, the fluorescence intensity (flow cytometry) [37] was 24.6, the fluorescence intensity (flow cytometry) [38] was 1470 and the fluorescence intensity (flow cytometry) [39] was 879. For the same binder, the fluorescence intensity (flow cytometry) [40] was 18.2, the fluorescence intensity (flow cytometry) [41] was 23.6 and the fluorescence intensity (flow cytometry) [42] was 11. The fluorescence intensity (flow cytometry) [43] was 14.2, the fluorescence intensity (flow cytometry) [44] was 23.4 and the fluorescence intensity (flow cytometry) [45] was 22.7. It also gave a fluorescence intensity (flow cytometry) [46] of 11.6, a fluorescence intensity (flow cytometry) [47] of 1180 and a fluorescence intensity (flow cytometry) [48] of 2420. It also gave a fluorescence intensity (flow cytometry) [49] of 429, a fluorescence intensity (flow cytometry) [50] of 638 and a fluorescence intensity (flow cytometry) [51] of 989. It also gave a fluorescence intensity (flow cytometry) [52] of 352, a fluorescence intensity (flow cytometry) [53] of 253 and a fluorescence intensity (flow cytometry) [54] of 2520. For the same binder, the fluorescence intensity (flow cytometry) [55] was 927, the fluorescence intensity (flow cytometry) [56] was 40.5 and the fluorescence intensity (flow cytometry) [57] was 215. It also gave a fluorescence intensity (flow cytometry) [58] of 73.6, a fluorescence intensity (flow cytometry) [59] of 130 and a fluorescence intensity (flow cytometry) [60] of 42.3. For the same binder, the fluorescence intensity (flow cytometry) [61] was 64.1.
